Measured values reported in the supplement of paper PMC10567573.
± gives the standard deviation.

Assay: protein stability index of a GFP-peptide fusion (GPS, HEK-293T) (PSI 1-6); higher = more stable
[1] = treatment: DMSO, c terminus: a fixed tail appended
[2] = treatment: MLN4924 1 uM, 8 h, c terminus: a fixed tail appended
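Note: 24-mer peptide tiles fused after GFP, lentivirally expressed, FACS-sorted into six equal bins by GFP/DsRed ratio, decoded by Illumina sequencing, PSI is the read-weighted mean bin number.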

Sequence | protein stability index [1] | protein stability index [2] | protein stability index (treatment: DMSO, c terminus: native) | protein stability index (treatment: MLN4924 1 uM, 8 h, c terminus: native)
NESKGTRESWDSAKKLPPVQESQS [ELOA2] | 5.41 ± 0.096 | 5.1 ± 0.4 | – | –
NETQPIDLSGLPLQSSKNSYSFQN [RNF180] | 3.95 ± 0.22 | 3.89 ± 0.18 | – | –
NFIGRQWEISDDYPSLQAMGWFNN [CRYBA1] | 2.45 ± 0.18 | 2.32 ± 0.18 | – | –
NFLFRNAASTLTERPCYNRRASKL [ANKRD40] | 3.19 ± 0.28 | 3.4 ± 0.12 | – | –
NFSAAKSLLNKKADGVKPQTNSTK [CAMK2B] | 4.98 ± 0.22 | 4.85 ± 0.34 | – | –
NFSNYYVAHPPVTYSQPYPTWLPC [TENT5C] | 2.46 ± 0.5 | 2.17 ± 0.098 | – | –
NFSVDRWERKEGGGGISCVLQDGC [CPOX] | 3.8 ± 0.2 | 3.8 ± 0.33 | – | –
NHFVWRLIPVPMATQIQQLLQDKQ [VPS39] | 2.3 ± 0.44 | 2.16 ± 0.31 | – | –
NIGINGNHSLETCETTLFALRMAT [PTGFR] | 2.34 ± 0.21 | 2.33 ± 0.34 | – | –
NITDETPDNCEMFLNFNGMKLFLD [ZER1] | 3.62 ± 0.18 | 3.65 ± 0.46 | – | –
NKISRFQAPISAPEYTYGISNIDT [MFF] | 3.42 ± 0.28 | 3.56 ± 0.45 | – | –
NKTPGAPESSALQPPPQSSEGLVG [WAS] | 5.41 ± 0.35 | 5.3 ± 0.31 | – | –
NLAQDPQCKEWQVLMCGFPFLLLF [TMEM120A] | 2.5 ± 0.61 | 2.35 ± 0.61 | – | –
NLLPAAGELQESGLALCPEVQDLL [SMG5] | 4.26 ± 0.21 | 4.31 ± 0.13 | – | –
NLVARHPLFSEDVVLKLFLSFSGS [SNX8] | 2.7 ± 0.58 | 2.33 ± 0.2 | – | –
NMNDNFLEGEEENELTLNEKNFFP [CHGB] | 4.71 ± 0.16 | 4.81 ± 0.14 | – | –
NNVVPIHVPPTTENKPKVQCCQNI [RAB11A] | 4.56 ± 0.15 | 4.57 ± 0.21 | – | –
NPPKASAAPDCTPSLEAGNPAPAA [MYCL] | 5.34 ± 0.19 | 5.34 ± 0.23 | – | –
NQMKERQGLFFDMEAYLPKKNGLY [TMEM120A] | 2.65 ± 0.077 | 2.73 ± 0.15 | – | –
NQNSWGTGEDVKVILKNSQGEEVA [LMNB1] | 4.99 ± 0.22 | 4.85 ± 0.13 | – | –
NRKRECGNAHYQRADFVLAANSYD [FKBP8] | 3.33 ± 0.35 | 3.68 ± 0.29 | – | –
NRPIETYQVHDYLRSKLCSLYEND [PPP2R2B] | 2.97 ± 0.084 | 3.22 ± 0.16 | – | –

Sequence | protein stability index [1] | protein stability index [2] | protein stability index (treatment: DMSO, c terminus: native) | protein stability index (treatment: MLN4924 1 uM, 8 h, c terminus: native)
NSAAATSPKGTLPPAALESSDSAN [CAMK2B] | 5.39 ± 0.096 | 5.37 ± 0.21 | – | –
NSALKDKEDQFGRTPLMYCVLADR [INVS] | 3.37 ± 0.4 | 3.23 ± 0.37 | – | –
NSLLEEETILHFFVQILLALHHVH [NEK8] | 2.38 ± 0.11 | 2.33 ± 0.35 | – | –
NTEIEKLGRSIVSSPQGKSGPEAA [PKD2L1] | 5.35 ± 0.22 | 5.34 ± 0.15 | – | –
NTIAFRHLFLLGYSDGADDTFAAY [MCOLN1] | 2.46 ± 0.66 | 2.33 ± 0.12 | – | –
NTLKRENSSPRVMQRKQSLGKPDQ [DLC1] | 4.85 ± 0.24 | 4.83 ± 0.38 | – | –
NVINHFYCDLPQLFQLSCSSTQLN [OR3A1] | 3 ± 0.66 | 2.84 ± 0.34 | – | –
NWEAPPGAFDSFLLRFGVPSPSTL [TNXB] | 3.06 ± 0.37 | 2.85 ± 0.28 | – | –
NYTNPLKVQTVIILGKVILWILHL [TMEM192] | 2.08 ± 0.19 | 2.15 ± 0.24 | – | –
PANVDASVMFRKWRDSKGKDKEYA [UBE2R2] | 4.09 ± 0.27 | 3.95 ± 0.24 | – | –
PAPATQMPSTPGFVGYNPYSHLAY [SMARCE1] | 2.37 ± 0.21 | 2.44 ± 0.27 | – | –
PAQRITLAEALLHPFFAGLTPEER [CLK3] | 3 ± 0.28 | 3.13 ± 0.27 | – | –
PAVDLNQVLNETRNQYEALVETNR [KRT33B] | 3.39 ± 0.36 | 3.87 ± 0.74 | – | –
PCWKITLFVIVPVLGPLVALIICY [MOG] | 2.87 ± 0.98 | 2.88 ± 1.2 | – | –
PDNEQLMEEVISPRQVSYTPQHHE [IQUB] | 5.16 ± 0.4 | 5.32 ± 0.19 | – | –
PDTELKRYFGARAILGEQRPRQRQ [TCF25] | 4.25 ± 0.11 | 4.11 ± 0.18 | – | –
PEDGRIFAQRTFDYELLQMLQIVV [PCDHGC5] | 2.19 ± 0.4 | 2.3 ± 0.36 | – | –
PEDLAQLEELIDMAVLEEIQQELI [RPAIN] | 2.54 ± 0.14 | 2.89 ± 0.41 | – | –
PEDRPSLDDIIRHDFFLQGFTPDR [PLK2] | 4.35 ± 0.12 | 4.27 ± 0.29 | – | –
PESDILQPVPNTTEPDYKSKDWVF [STK38L] | 4.45 ± 0.32 | 4.55 ± 0.19 | – | –
PESSALQPPPQSSEGLVGALMHVM [WAS] | 3.77 ± 0.17 | 3.58 ± 0.56 | – | –
PETEAVSSSQEIPTMPQPIEKVSV [ZMYND11] | 5.24 ± 0.33 | 5.36 ± 0.26 | – | –

Sequence | protein stability index [1] | protein stability index [2] | protein stability index (treatment: DMSO, c terminus: native) | protein stability index (treatment: MLN4924 1 uM, 8 h, c terminus: native)
PETQLFWDKEPWFWHDTLTEQLWR [TLE6] | 2.7 ± 0.57 | 2.27 ± 0.36 | – | –
PFETREPPPAYEPPAPAPLPPPSA [SCAMP3] | 4.99 ± 0.22 | 5.08 ± 0.41 | – | –
PFHEMFVSRGGHGQQDLFRVLKAY [TBC1D10A] | 2.25 ± 0.18 | 2.42 ± 0.085 | – | –
PFLFFGHFWQLFNALTLFNLAQDP [TMEM120A] | 3.35 ± 0.086 | 3.08 ± 0.13 | – | –
PFYTSRIDEVLLHQDVDLVCINLP [GFOD1] | 2.08 ± 0.18 | 2.21 ± 0.35 | – | –
PGDMLLQVNEINFENMSNDDAVRV [DVL3] | 4.4 ± 0.35 | 4.37 ± 0.21 | – | –
PGETRRNSYPRADTGLFSRSKSGS [TRIM29] | 4.73 ± 0.18 | 5.01 ± 0.47 | – | –
PGFYATYESTLFEDQVPALEAPED [MIA2] | 5.18 ± 0.27 | 4.92 ± 0.36 | – | –
PGPGGTMKRHSSRDAAGKPQRPRS [FCHO1] | 5.04 ± 0.16 | 5.12 ± 0.17 | – | –
PGSASLAQSRLEDPGQDLVPKQAI [DLX1] | 4.83 ± 0.48 | 5 ± 0.34 | – | –
PIRCGEVLFAVGGWCSGDAISSVE [KLHL20] | 2.22 ± 0.42 | 2.34 ± 0.41 | – | –
PIRSISLRSCYFSDPDCSMRPTLI [FBXO39] | 2.13 ± 0.36 | 2.07 ± 0.27 | – | –
PKAQPQTWKSGKQTMLSHYRPFYV [TRIM29] | 2.57 ± 0.17 | 2.06 ± 0.39 | – | –
PKKIMPEAHSHYLYGHMLSAFRD [PPFIA4] | – | – | 2.35 ± 0.23 | 2.77 ± 0.35
PKNGRHAWIWHDCHRHYHSMEVFT [LOXL2] | 2.28 ± 0.24 | 2.4 ± 0.17 | – | –
PKYQLFVPQLVTGRCATRAFHRKS [RNF180] | 2.14 ± 0.34 | 2.21 ± 0.28 | – | –
PLELLPGGPARPLGPGPAAPRLLK [CEBPD] | 4.33 ± 0.12 | 4.54 ± 0.14 | – | –
PLLLRLPRICQRNLMSLLMAVRPS [FANCE] | 2.45 ± 0.34 | 2.56 ± 0.062 | – | –
PLLSPLLASRNPCPWHYLHLSGSH [RSPH3] | 2.15 ± 0.23 | 2.01 ± 0.2 | – | –
PLMKPHRPWADTCSSSGKDGNLCL [HESX1] | 2.74 ± 0.16 | 2.69 ± 0.21 | – | –
PLPAAAVVHVSFPEVTSALLESLN [ZBTB22] | 2.41 ± 0.25 | 2.27 ± 0.26 | – | –
